From patent US20110177600A1 (published 2011) come the findings set out here.

The target in this experiment is diphtheria toxin (UniProt P00588 33-567). Briefly: cell-based or functional assay.
diphtheria toxin, sequence (P00588 33-567 limits assumed): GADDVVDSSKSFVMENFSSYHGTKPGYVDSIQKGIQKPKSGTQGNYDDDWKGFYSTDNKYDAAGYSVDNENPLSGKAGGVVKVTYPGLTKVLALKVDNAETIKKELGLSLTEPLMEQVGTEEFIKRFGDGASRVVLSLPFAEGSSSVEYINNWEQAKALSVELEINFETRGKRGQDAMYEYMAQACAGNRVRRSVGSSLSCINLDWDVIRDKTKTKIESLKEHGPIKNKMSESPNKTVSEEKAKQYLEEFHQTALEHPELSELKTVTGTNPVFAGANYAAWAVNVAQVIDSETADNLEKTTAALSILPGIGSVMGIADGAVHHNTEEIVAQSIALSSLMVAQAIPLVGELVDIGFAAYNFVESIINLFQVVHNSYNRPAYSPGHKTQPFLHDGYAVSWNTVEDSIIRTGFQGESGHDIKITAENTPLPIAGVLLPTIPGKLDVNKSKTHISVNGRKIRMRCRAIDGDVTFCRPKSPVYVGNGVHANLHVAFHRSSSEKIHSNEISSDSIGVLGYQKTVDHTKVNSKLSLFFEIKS

B1: anti-diphtheria toxin antibody expressed in DG44 cells (antibody, human IgG1, kappa, V domains shown)
VH: EVQLVESGGGLVKPGGSLRLSCEASGFIFSDYYMSWIRQAPGKGLEWISYISPSGSTLYYADSMRGRFTISRDNAKNSLYLQMNSLRVEDTAVYFCAREYPTTSKVAITPNWFDLWGQGTLVTVSS
VL: ETTLTQSPATLSLSPGERATLSCRASQSVSTFLAWYQQKPGQAPRLLIYDASNRATGIPARFSGSGSGTDFTLTISSLEPEDFAVYYCQQRNIWPSFGGGTKVDIKR
Consider B1, for which the “EC50 for protecting Jurkat cells from killing by diphtheria toxin (3H-thymidine incorporation)” value is 8 ng/mL.

B2: anti-diphtheria toxin antibody expressed in PER.C6 cells (antibody, human IgG1, kappa, V domains shown)
VH: EVQLVESGGGLVKPGGSLRLSCEASGFIFSDYYMSWIRQAPGKGLEWISYISPSGSTLYYADSMRGRFTISRDNAKNSLYLQMNSLRVEDTAVYFCAREYPTTSKVAITPNWFDLWGQGTLVTVSS
VL: ETTLTQSPATLSLSPGERATLSCRASQSVSTFLAWYQQKPGQAPRLLIYDASNRATGIPARFSGSGSGTDFTLTISSLEPEDFAVYYCQQRNIWPSFGGGTKVDIKR
As for B2, the “EC50 for protecting Jurkat cells from killing by diphtheria toxin (3H-thymidine incorporation)” value was determined as 11 ng/mL.
